B1: Syndecan-1 (Homo sapiens), P18827 (parent)
chain: MRRAALWLWLCALALSLQPALPQIVATNLPPEDQDGSGDDSDNFSGSGAGALQDITLSQQTPSTWKDTQLLTAIPTSPEPTGLEATAASTSTLPAGEGPKEGEAVVLPEVEPGLTAREQEATPRPRETTQLPTTHLASTTTATTAQEPATSHPHRDMQPGHHETSTPAGPSQADLHTPHTEDGGPSATERAAEDGASSQLPAAEGSGEQDFTFETSGENTAVVAVEPDRRNQSPVDQGATGASQGLLDRKEVLGGVIAGGLVGLIFAVCLVGFMLYRMKKKDEGSYSLEEPKQANGGAYQKPTKQEEFYA
B2: Rho guanine nucleotide exchange factor TIAM1 (Homo sapiens), Q13009 (parent)
chain: MGNAESQHVEHEFYGEKHASLGRKHTSRSLRLSHKTRRTRHASSGKVIHRNSEVSTRSSSTPSIPQSLAENGLEPFSQDGTLEDFGSPIWVDRVDMGLRPVSYTDSSVTPSVDSSIVLTAASVQSMPDTEESRLYGDDATYLAEGGRRQHSYTSNGPTFMETASFKKKRSKSADIWREDSLEFSLSDLSQEHLTSNEEILGSAEEKDCEEARGMETRASPRQLSTCQRANSLGDLYAQKNSGVTANGGPGSKFAGYCRNLVSDIPNLANHKMPPAAAEETPPYSNYNTLPCRKSHCLSEGATNPQISHSNSMQGRRAKTTQDVNAGEGSEFADSGIEGATTDTDLLSRRSNATNSSYSPTTGRAFVGSDSGSSSTGDAARQGVYENFRRELEMSTTNSESLEEAGSAHSDEQSSGTLSSPGQSDILLTAAQGTVRKAGALAVKNFLVHKKNKKVESATRRKWKHYWVSLKGCTLFFYESDGRSGIDHNSIPKHAVWVENSIVQAVPEHPKKDFVFCLSNSLGDAFLFQTTSQTELENWITAIHSACATAVARHHHKEDTLRLLKSEIKKLEQKIDMDEKMKKMGEMQLSSVTDSKKKKTILDQIFVWEQNLEQFQMDLFRFRCYLASLQGGELPNPKRLLAFASRPTKVAMGRLGIFSVSSFHALVAARTGETGVRRRTQAMSRSASKRRSRFSSLWGLDTTSKKKQGRPSINQVFGEGTEAVKKSLEGIFDDIVPDGKREKEVVLPNVHQHNPDCDIWVHEYFTPSWFCLPNNQPALTVVRPGDTARDTLELICKTHQLDHSAHYLRLKFLIENKMQLYVPQPEEDIYELLYKEIEICPKVTQSIHIEKSDTAADTYGFSLSSVEEDGIRRLYVNSVKETGLASKKGLKAGDEILEINNRAADALNSSMLKDFLSQPSLGLLVRTYPELEEGVELLESPPHRVDGPADLGESPLAFLTSNPGHSLCSEQGSSAETAPEETEGPDLESSDETDHSSKSTEQVAAFCRSLHEMNPSDQSPSPQDSTGPQLATMRQLSDADKLRKVICELLETERTYVKDLNCLMERYLKPLQKETFLTQDELDVLFGNLTEMVEFQVEFLKTLEDGVRLVPDLEKLEKVDQFKKVLFSLGGSFLYYADRFKLYSAFCASHTKVPKVLVKAKTDTAFKAFLDAQNPKQQHSSTLESYLIKPIQRILKYPLLLRELFALTDAESEEHYHLDVAIKTMNKVASHINEMQKIHEEFGAVFDQLIAEQTGEKKEVADLSMGDLLLHTTVIWLNPPASLGKWKKEPELAAFVFKTAVVLVYKDGSKQKKKLVGSHRLSIYEDWDPFRFRHMIPTEALQVRALASADAEANAVCEIVHVKSESEGRPERVFHLCCSSPESRKDFLKAVHSILRDKHRRQLLKTESLPSSQQYVPFGGKRLCALKGARPAMSRAVSAPSKSLGRRRRRLARNRFTIDSDAVSASSPEKESQQPPGGGDTDRWVEEQFDLAQYEEQDDIKETDILSDDDEFCESVKGASVDRDLQERLQATSISQRERGRKTLDSHASRMAQLKKQAALSGINGGLESASEEVIWVRREDFAPSRKLNTEI
partner: B1 chain

Variants of: B1
Conditions: with tiam1_human TIAM1, Q13009

Variant	effect of a mutation on the interaction
MRRAALWLWLCALALSLQPALPQIVATNLPPEDQDGSGDDSDNFSGSGAGALQDITLSQQTPSTWKDTQLLTAIPTSPEPTGLEATAASTSTLPAGEGPKEGEAVVLPEVEPGLTAREQEATPRPRETTQLPTTHLASTTTATTAQEPATSHPHRDMQPGHHETSTPAGPSQADLHTPHTEDGGPSATERAAEDGASSQLPAAEGSGEQDFTFETSGENTAVVAVEPDRRNQSPVDQGATGASQGLLDRKEVLGGVIAGGLVGLIFAVCLVGFMLYRMKKKDEGSYSLEEPKQANGGAYQKPTKQKEFYA [E306K]	decreasing interaction strength

Variants of: B2
Conditions: with sdc1_human SDC1, P18827

Variant	effect of a mutation on the interaction
K879E	decreasing interaction strength
K912E	decreasing interaction strength
